Test results taken from article PMC10805701, “Structure of mycobacterial ergothioneine-biosynthesis C-S lyase EgtE” (The Journal of Biological Chemistry, 2023).
Changes are numbered by the printed parent chain. Numbers in names are those of the source.

B1: MsEgtE (Mycolicibacterium smegmatis MC2 155) (protein)
chain: MMLAQQWRDARPKVAGLHLDSGACSRQSFAVIDATTAHARHEAEVGGYVAAEAATPALDAGRAAVASLIGFAASDVVYTSGSNHAIDLLLSSWPGKRTLACLPGEYGPNLSAMAANGFQVRALPVDDDGRVLVDEASHELSAHPVALVHLTALASHRGIAQPAAELVEACHNAGIPVVIDAAQALGHLDCNVGADAVYSSSRKWLAGPRGVGVLAVRPELAERLQPRIPPSDWPIPMSVLEKLELGEHNAAARVGFSVAVGEHLAAGPTAVRERLAEVGRLSRQVLAEVDGWRVVEPVDQPTAITTLESTDGADPASVRSWLIAERGIVTTACELARAPFEMRTPVLRISPHVDVTVDELEQFAAALREAP
notes: full-length ORF, pET28a N-terminal hexa-histidine tag, E. coli BL21 (DE3); homodimer (~76 kDa by SEC, predicted 78 kDa)
B2: ergothioneine-biosynthesis C-S lyase EgtE from Mycobacterium smegmatis (enzyme, M. smegmatis strain mc2155, UniProt A0R5M7 1-371, looked up)
chain: B1 chain
modifications: PLP covalently linked to Lys203 via a Schiff base linkage (monomer 1; bond broken in monomer 2 of the MsEgtE-PLP crystal)
notes: EgtE (PLP-dependent C-S lyase), Mycobacterium smegmatis strain mc2155, full-length ORF of msmeg_6246 in pET28a; residues 1-371 described in the structure; Homodimer by crystal structure and size exclusion chromatography; also called MsEgtE; MsEgtE-PLP
B3: MsEgtE (Mycolicibacterium smegmatis MC2 155; Q183A) (protein)
chain: B1 chain with Q183A
notes: as for B1
B4: MsEgtE (Mycolicibacterium smegmatis MC2 155; R202K) (protein)
chain: B1 chain with R202K
notes: as for B1
B5: MsEgtE (Mycolicibacterium smegmatis MC2 155; Y106F) (protein)
chain: B1 chain with Y106F
notes: as for B1

Columns and labels:
[1] = target: T1, MsEgtE (Mycolicibacterium smegmatis, UniProt A0R5M7); test: X-ray crystal structure, […] Å; assay type: binding; settings: active site of MsEgtE-PLP; from soaked sulfoxide 4 (10 mM)
T1 construct: gene egtE; full-length ORF, pET28a N-terminal hexa-histidine tag, E. coli BL21 (DE3); homodimer (~76 kDa by SEC, predicted 78 kDa)
T1 sequence (A0R5M7 1-371): B1 chain

[2] = target: T2, MsEgtE (Mycolicibacterium smegmatis, UniProt A0R5M7, Y48A); test: isothermal titration calorimetry, single injection; assay type: binding; settings: 25 °C; 1 mM sulfoxide 4 injected into 20 μM enzyme
T2 construct: gene egtE; full-length ORF, pET28a N-terminal hexa-histidine tag, E. coli BL21 (DE3); homodimer (~76 kDa by SEC, predicted 78 kDa)

[3] = substrate: C[N+](C)(C)[C@@H](Cc1cnc([S+]([O-])C[C@H](N)C(=O)O)[nH]1)C(=O)[O-]; test: purified protein; assay type: biochemical, Mycolicibacterium smegmatis; settings: 50 mM KPi pH 8.0, 25 °C, PLP-loaded enzyme, 1 mM DTT, 0.13 mM NADH
[4] = target: the molecule itself; test: crystal structure; MsEgtE-PLP crystal, 2.8 Å, two molecules per asymmetric unit; sitting drop at 16 °C, 0.1 M HEPES-Na pH 7.5, 1 M NaCl, 0.1 M LiSO4, 10% PEG1000
[5] = target: the molecule itself; test: crystal structure; MsEgtE-PLP binding pyruvate crystal, 2.35 Å, short soak in sulfoxide 4; 0.1 M citric acid pH 6.5, 15% PEG8000, 15% glycol

T2 sequence (A0R5M7 whole entry Y48A): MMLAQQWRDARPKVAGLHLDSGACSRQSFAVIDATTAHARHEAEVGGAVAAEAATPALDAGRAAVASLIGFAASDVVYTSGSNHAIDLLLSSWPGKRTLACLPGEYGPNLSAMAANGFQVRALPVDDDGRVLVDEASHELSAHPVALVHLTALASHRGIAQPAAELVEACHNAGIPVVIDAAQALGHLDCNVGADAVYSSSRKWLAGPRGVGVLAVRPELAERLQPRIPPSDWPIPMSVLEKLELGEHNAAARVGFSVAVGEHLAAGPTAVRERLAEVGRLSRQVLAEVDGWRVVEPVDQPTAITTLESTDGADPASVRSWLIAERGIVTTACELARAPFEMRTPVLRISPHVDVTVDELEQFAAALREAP

Molecule	Km [3]	kcat [3]	also measured
CC(=O)C(=O)O [pyruvate]			X-ray crystal structure, 2.35 Å [1]: pyruvate binds in the deep crevice of the active center
C[N+](C)(C)[C@@H](Cc1cnc([S+]([O-])C[C@H](N)C(=O)O)[nH]1)C(=O)[O-] (stereo partly drawn) [compound 4, sulfoxide 4]			isothermal titration calorimetry, single injection [2]: Y48A mutant still retains a certain level of substrate binding capability
B1	516.0 ± 122.1 µM	2.08 ± 0.25 s⁻¹	
B2			stoichiometry N [4]: 2; stoichiometry N [5]: 4
B3	679.7 ± 235.0 µM	0.23 ± 0.04 s⁻¹	
B4	58.5 ± 8.7 µM	0.03 ± 0.01 s⁻¹	
B5	52.1 ± 13.1 µM	0.32 ± 0.02 s⁻¹	
